In patent publication EP4803149A2 (Lyvgen Biopharma Holdings Limited, dated 2026):

B1: Ly1965 (bispecific antibody)
chain 1: QVQLVQSGAEVKKPGASVKVSCKASGYTFTSYVMHWVRQKPGQGLEWIGYINPYNEGTESTDKFKGRATMTSDKSTSTVYMELSSLRSEDTAVYYCASIYYGYEGTYFGVWGQGTLVTVSSASTKGPSVFPLAPSSKSTSGGTAALGCLVKDYFPEPVTVSWNSGALTSGVHTFPAVLQSSGLYSLSSVVTVPSSSLGTQTYICNVNHKPSNTKVDKKVEPKSCGGGGSGGGGSGGGGSGGGGSEVQLVESGGGLVQPGGSLRLSCAASGFTFSTYAMNWVRQAPGKGLEWVGRIRSKYNNYATYYADSVKGRFTISRDDSKNSLYLQMNSLKTEDTAVYYCVRHGNFGNSYVSWFAYWGQGTLVTVSSGGGGSDKTHTCPPCPAPEAAGPSVFLFPPKPKDTLMISRTPEVTCVVVDVSHEDPEVKFNWYVDGVEVHNAKTKPREEQYNSTYRVVSVLTVLHQDWLNGKEYKCKVSNKALPAPIEKTISKAKGQPREPQVYTLPPSREEMTKNQVSLWCLVKGFYPSDIAVEWESNGQPENNYKTTPPVLDSDGSFFLYSKLTVDKSRWQQGNVFSCSVMHEALHNHYTQKSLSLSPG
chain 2: QVQLVQSGAEVKKPGASVKVSCKASGYTFTSYVMHWVRQKPGQGLEWIGYINPYNEGTESTDKFKGRATMTSDKSTSTVYMELSSLRSEDTAVYYCASIYYGYEGTYFGVWGQGTLVTVSSASTKGPSVFPLAPSSKSTSGGTAALGCLVKDYFPEPVTVSWNSGALTSGVHTFPAVLQSSGLYSLSSVVTVPSSSLGTQTYICNVNHKPSNTKVDKKVEPKSCGGGGSGGGGSGGGGSGGGGSQAVVTQEPSLTVSPGGTVTLTCRSSTGAVTTSNYANWVQQKPGQAPRGLIGGTNKRAPWTPARFSGSLLGGKAALTITGAQAEDEADYYCALWYSNLWVFGGGTKLTVLGGGGSDKTHTCPPCPAPEAAGPSVFLFPPKPKDTLMISRTPEVTCVVVDVSHEDPEVKFNWYVDGVEVHNAKTKPREEQYNSTYRVVSVLTVLHQDWLNGKEYKCKVSNKALPAPIEKTISKAKGQPREPQVYTLPPSREEMTKNQVSLSCAVKGFYPSDIAVEWESNGQPENNYKTTPPVLDSDGSFFLVSKLTVDKSRWQQGNVFSCSVMHEALHNRFTQKSLSLSPG
chain 3: EIVLTQSPATLSLSPGERATLSCRASSSVSYMHWYQQKPGQAPRPWIYATSNLASGIPARFSGSRSGTDYTLTISSLEPEDFAVYYCQQWSSNTLTFGGGTKVEIKRTVAAPSVFIFPPSDEQLKSGTASVVCLLNNFYPREAKVQWKVDNALQSGNSQESVTEQDSKDSTYSLSSTLTLSKADYEKHKVYACEVTHQGLSSPVTKSFNRGEC
notes: B7H3/CD3; central CD3 Fv
B2: Ly1963 (multi-specific antibody)
chain 1: QVQLVQSGAEVKKPGASVKVSCKASGYTFTSYVMHWVRQKPGQGLEWIGYINPYNEGTESTDKFKGRATMTSDKSTSTVYMELSSLRSEDTAVYYCASIYYGYEGTYFGVWGQGTLVTVSSASTKGPSVFPLAPSSKSTSGGTAALGCLVKDYFPEPVTVSWNSGALTSGVHTFPAVLQSSGLYSLSSVVTVPSSSLGTQTYICNVNHKPSNTKVDKKVEPKSCGGGGSGGGGSGGGGSGGGGSEVQLVESGGGLVQPGGSLRLSCAASGFTFSTYAMNWVRQAPGKGLEWVGRIRSKYNNYATYYADSVKGRFTISRDDSKNSLYLQMNSLKTEDTAVYYCVRHGNFGNSYVSWFAYWGQGTLVTVSSGGGGSDKTHTCPPCPAPEAAGPSVFLFPPKPKDTLMISRTPEVTCVVVDVSHEDPEVKFNWYVDGVEVHNAKTKPREEQYNSTYRVVSVLTVLHQDWLNGKEYKCKVSNKALPAPIEKTISKAKGQPREPQVYTLPPSREEMTKNQVSLWCLVKGFYPSDIAVEWESNGQPENNYKTTPPVLDSDGSFFLYSKLTVDKSRWQQGNVFSCSVMHEALHNHYTQKSLSLSPGGGGGSGGGGSGGGGSGGGGSQVQLVQSGAEVKKPGASVKVSCKASGYTFAGFEMHWVRQAPGQGLEWMGAIDPKTGGTDYNQKFKDRVTMTRDTSISTAYMELSRLRSDDTAVYYCARDLGYFDVWGQGTLVTVSS
chain 2: QVQLVQSGAEVKKPGASVKVSCKASGYTFTSYVMHWVRQKPGQGLEWIGYINPYNEGTESTDKFKGRATMTSDKSTSTVYMELSSLRSEDTAVYYCASIYYGYEGTYFGVWGQGTLVTVSSASTKGPSVFPLAPSSKSTSGGTAALGCLVKDYFPEPVTVSWNSGALTSGVHTFPAVLQSSGLYSLSSVVTVPSSSLGTQTYICNVNHKPSNTKVDKKVEPKSCGGGGSGGGGSGGGGSGGGGSQAVVTQEPSLTVSPGGTVTLTCRSSTGAVTTSNYANWVQQKPGQAPRGLIGGTNKRAPWTPARFSGSLLGGKAALTITGAQAEDEADYYCALWYSNLWVFGGGTKLTVLGGGGSDKTHTCPPCPAPEAAGPSVFLFPPKPKDTLMISRTPEVTCVVVDVSHEDPEVKFNWYVDGVEVHNAKTKPREEQYNSTYRVVSVLTVLHQDWLNGKEYKCKVSNKALPAPIEKTISKAKGQPREPQVYTLPPSREEMTKNQVSLSCAVKGFYPSDIAVEWESNGQPENNYKTTPPVLDSDGSFFLVSKLTVDKSRWQQGNVFSCSVMHEALHNHYTQKSLSLSPGGGGGSGGGGSGGGGSGGGGSDIQMTQSPSSLSASVGDRVTITCRASQDIRSNLNWYQQKPGGAVKLLIYYTSRLHSGVPSRFSGSGSGTDYTLTISSLQPEDFATYFCQQSEKLPRTFGGGTKVEIR
chain 3: EIVLTQSPATLSLSPGERATLSCRASSSVSYMHWYQQKPGQAPRPWIYATSNLASGIPARFSGSRSGTDYTLTISSLEPEDFAVYYCQQWSSNTLTFGGGTKVEIKRTVAAPSVFIFPPSDEQLKSGTASVVCLLNNFYPREAKVQWKVDNALQSGNSQESVTEQDSKDSTYSLSSTLTLSKADYEKHKVYACEVTHQGLSSPVTKSFNRGEC
notes: B7H3/CD3/CD137 tri-specific; central CD3 Fv, terminal CD137 Fv
B3: Ly2128 (multi-specific antibody)
chain 1: QVQLVQSGAEVKKPGASVKVSCKASGYTFTSYVMHWVRQKPGQGLEWIGYINPYNEGTESTDKFKGRATMTSDKSTSTVYMELSSLRSEDTAVYYCASIYYGYEGTYFGVWGQGTLVTVSSASTKGPSVFPLAPSSKSTSGGTAALGCLVKDYFPEPVTVSWNSGALTSGVHTFPAVLQSSGLYSLSSVVTVPSSSLGTQTYICNVNHKPSNTKVDKKVEPKSCGGGGSGGGGSGGGGSGGGGSEVQLVESGGGLVQPGGSLRLSCAASGFTFSTYAMNWVRQAPGKGLEWVGRIRSKYNNYATYYADSVKGRFTISRDDSKNSLYLQMNSLKTEDTAVYYCVRHGNFGNSYVSWFAYWGQGTLVTVSSGGGGSDKTHTCPPCPAPEAAGPSVFLFPPKPKDTLMISRTPEVTCVVVDVSHEDPEVKFNWYVDGVEVHNAKTKPREEQYNSTYRVVSVLTVLHQDWLNGKEYKCKVSNKALPAPIEKTISKAKGQPREPQVYTLPPSREEMTKNQVSLWCLVKGFYPSDIAVEWESNGQPENNYKTTPPVLDSDGSFFLYSKLTVDKSRWQQGNVFSCSVMHEALHNHYTQKSLSLSPGGGGGSGGGGSGGGGSGGGGSQVQLVQSGAEVKKPGASVKVSCKASGYTFTSYYIHWVRQAPGQGLEWIGCIYPGNVNTNYNEKFKDRATLTVDTSISTAYMELSRLRSDDTAVYFCTRSHYGLDWNFDVWGQGTTVTVSS
chain 2: not shown
chain 3: EIVLTQSPATLSLSPGERATLSCRASSSVSYMHWYQQKPGQAPRPWIYATSNLASGIPARFSGSRSGTDYTLTISSLEPEDFAVYYCQQWSSNTLTFGGGTKVEIKRTVAAPSVFIFPPSDEQLKSGTASVVCLLNNFYPREAKVQWKVDNALQSGNSQESVTEQDSKDSTYSLSSTLTLSKADYEKHKVYACEVTHQGLSSPVTKSFNRGEC
notes: Tri-specific B7H3/CD3/CD28; central CD3 Fv, terminal CD28 Fv
B4: Anti-CD3 Ly305 (antibody, V domains shown)
VH: EVQLVESGGGLVQPGGSLRLSCAASGFTFSTYAMNWVRQAPGKGLEWVGRIRSKYNNYATYYADSVKGRFTISRDDSKNSLYLQMNSLKTEDTAVYYCVRHGNFGNSYVSWFAYWGQGTLVTVSS
VL: QAVVTQEPSLTVSPGGTVTLTCRSSTGAVTTSNYANWVQQKPGQAPRGLIGGTNKRAPWTPARFSGSLLGGKAALTITGAQAEDEADYYCALWYSNLWVFGGGTKLTVL
notes: mAb; also called parent anti-CD3 mAb

These binders were tested against CD3 (human) (assay: ELISA or FCM (as in Example 2)).
Work on B1 yielded an EC50 of 0.419 µg/mL. For B2, the EC50 was 0.74 µg/mL. Work on B3 yielded an EC50 of 1.08 µg/mL. B4 showed an EC50 of 0.03 µg/mL.
